Experimental data published in publication doi:10.1101/2020.09.06.285171.
One block for each binder: values may come before it.

Molecular target: EGFP-MYO10-MYO7B chimeric myosin (Bos taurus (Bt) | human (Hs)) (UniProt P79114)
Test: in-cell filopodial tip enrichment assay with a chimeric myosin

UniProt P79114, sequence (P79114 whole entry, change not shown): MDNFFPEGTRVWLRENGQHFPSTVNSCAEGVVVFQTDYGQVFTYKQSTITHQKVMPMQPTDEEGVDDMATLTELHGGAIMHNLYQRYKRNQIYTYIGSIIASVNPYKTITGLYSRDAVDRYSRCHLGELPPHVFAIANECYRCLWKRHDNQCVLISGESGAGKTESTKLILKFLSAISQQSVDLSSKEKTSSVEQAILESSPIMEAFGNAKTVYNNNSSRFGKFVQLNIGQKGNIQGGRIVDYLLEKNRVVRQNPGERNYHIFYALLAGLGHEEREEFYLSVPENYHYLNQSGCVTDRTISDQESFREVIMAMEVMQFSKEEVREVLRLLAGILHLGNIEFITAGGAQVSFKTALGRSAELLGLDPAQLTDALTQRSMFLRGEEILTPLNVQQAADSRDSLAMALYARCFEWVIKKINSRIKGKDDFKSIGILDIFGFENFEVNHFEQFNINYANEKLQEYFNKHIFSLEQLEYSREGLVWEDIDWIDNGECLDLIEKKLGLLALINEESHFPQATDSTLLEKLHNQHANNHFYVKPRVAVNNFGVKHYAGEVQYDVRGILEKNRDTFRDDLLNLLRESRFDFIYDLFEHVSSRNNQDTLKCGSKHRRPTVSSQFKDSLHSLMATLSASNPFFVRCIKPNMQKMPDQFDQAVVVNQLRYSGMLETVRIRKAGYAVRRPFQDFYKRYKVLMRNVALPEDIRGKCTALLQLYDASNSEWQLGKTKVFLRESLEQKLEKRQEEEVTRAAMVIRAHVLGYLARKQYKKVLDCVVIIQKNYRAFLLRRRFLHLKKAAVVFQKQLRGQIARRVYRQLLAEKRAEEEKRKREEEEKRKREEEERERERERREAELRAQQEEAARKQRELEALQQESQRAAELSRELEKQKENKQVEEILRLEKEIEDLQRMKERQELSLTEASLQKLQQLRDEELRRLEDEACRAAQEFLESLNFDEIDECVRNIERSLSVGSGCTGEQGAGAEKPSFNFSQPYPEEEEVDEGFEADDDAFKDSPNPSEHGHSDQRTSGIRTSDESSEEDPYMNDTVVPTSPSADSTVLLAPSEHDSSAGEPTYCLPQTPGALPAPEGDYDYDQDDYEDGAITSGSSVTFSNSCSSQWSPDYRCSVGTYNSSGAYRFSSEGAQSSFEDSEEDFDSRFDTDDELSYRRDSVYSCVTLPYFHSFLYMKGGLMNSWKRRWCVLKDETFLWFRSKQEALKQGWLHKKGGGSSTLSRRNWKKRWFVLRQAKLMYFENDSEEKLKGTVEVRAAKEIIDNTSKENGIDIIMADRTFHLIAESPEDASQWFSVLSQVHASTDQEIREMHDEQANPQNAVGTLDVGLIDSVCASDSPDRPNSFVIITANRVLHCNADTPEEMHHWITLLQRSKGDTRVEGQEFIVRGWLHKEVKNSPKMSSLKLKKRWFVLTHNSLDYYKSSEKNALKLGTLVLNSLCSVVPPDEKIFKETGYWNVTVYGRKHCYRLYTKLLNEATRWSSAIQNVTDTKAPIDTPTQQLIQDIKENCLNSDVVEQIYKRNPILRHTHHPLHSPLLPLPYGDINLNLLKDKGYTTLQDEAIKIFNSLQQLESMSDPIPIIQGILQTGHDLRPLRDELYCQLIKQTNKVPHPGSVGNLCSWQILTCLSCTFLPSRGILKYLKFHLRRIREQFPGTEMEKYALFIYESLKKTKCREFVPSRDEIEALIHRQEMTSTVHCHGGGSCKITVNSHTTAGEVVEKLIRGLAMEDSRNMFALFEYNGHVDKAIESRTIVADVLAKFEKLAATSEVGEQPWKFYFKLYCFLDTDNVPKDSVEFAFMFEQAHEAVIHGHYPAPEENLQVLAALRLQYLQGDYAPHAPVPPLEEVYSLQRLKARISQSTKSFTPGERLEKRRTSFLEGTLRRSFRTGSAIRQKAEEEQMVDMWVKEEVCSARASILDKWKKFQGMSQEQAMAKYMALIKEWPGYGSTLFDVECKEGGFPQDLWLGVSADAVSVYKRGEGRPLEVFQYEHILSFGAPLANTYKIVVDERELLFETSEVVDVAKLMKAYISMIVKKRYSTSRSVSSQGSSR

fold enrichment at filopodial tips relative to MYO10MD: 3 fold
B1: mCherry-USH1C (harmonin/Usher syndrome 1C) (natural protein)
chain: MDRKVAREFRHKVDFLIENDAEKDYLYDVLRMYHQTMDVAVLVGDLKLVINEPSRLPLFDAIRPLIPLKHQVEYDQLTPRRSRKLKEVRLDRLHPEGLGLSVRGGLEFGCGLFISHLIKGGQADSVGLQVGDEIVRINGYSISSCTHEEVINLIRTKKTVSIKVRHIGLIPVKSSPDEPLTWQYVDQFVSESGGVRGSLGSPGNRENKEKKVFISLVGSRGLGCSISSGPIQKPGIFISHVKPGSLSAEVGLEIGDQIVEVNGVDFSNLDHKEAVNVLKSSRSLTISIVAAAGRELFMTDRERLAEARQRELQRQELLMQKRLAMESNKILQEQQEMERQRRKEIAQKAAEENERYRKEMEQIVEEEEKFKKQWEEDWGSKEQLLLPKTITAEVHPVPLRKPKYDQGVEPELEPADDLDGGTEEQGEQDFRKYEEGFDPYSMFTPEQIMGKDVRLLRIKKEGSLDLALEGGVDSPIGKVVVSAVYERGAAERHGGIVKGDEIMAINGKIVTDYTLAEAEAALQKAWNQGGDWIDLVVAVCPPKEYDDELTFF

fold enrichment at filopodial tips relative to MYO10MD: 3 fold
B2: mCherry-ANKS4B (ankyrin repeat and sterile a motif domain containing 4B) (natural protein)
chain: MSTRYHQAASDSYLELLKEATKRDLNLSDEDGMTPTLLAAYHGNLEALEIICSRGGDPDRCDIWGNTPLHFAASNGHAHCVSFLVNFGANIFALDNDLQTPLDAAASREQNECVALLDKAATAQNIMNPKKVTRLKEQAQKNARRQIKECERLQEKHQNKMAHTYSKEESGTLSSSKGTFSRSSPSNASAPGTFGSLSKGIKDTFKIKFKKNKDTAEQVGKEGRSGQRNVMEVFREEEEDSFSGDFKEKLQLSAEEDGSVHHESILNRPGLGSIVFRRNRISSPEDISDSKREFGFKLPSELLQRQGASEADEGAADEEGEENGLKDDLPWDDDEVEWEEDVVDATPLEVFLLSQHLEEFLPIFKREQIDLEALLLCSDEDLQSIQMQLGPRKKVLNAINRRKQVLQQPGQLVDTSL
